Results on 3 compounds are retold here after patent publication US20010016194A1 (priority 1999, published 2001).

“Also recorded” adds a separate entry of the source.

The subject of assay [1] is Raf-1 / IL-2Rβ chain. Conditions: IL-2 stimulation; cited from earlier work.
Assay [2] addresses T1, Raf-1 serine/threonine kinase (Homo sapiens, UniProt P04049).
T1 construct: endogenous in cells; host or cells: human T-cell lysate (Raf-1); BL-21 pLysS bacteria (IL-2Rβ fusion)
Nature of the assay: Serine/threonine kinase assay on T-cell proteins retained by FLAG-HMK-IL-2Rβ chain, with or without genistein, Histone H1 substrate. It is filed as biochemical. Conditions: genistein 10 μg/ml; T-cell proteins bound to IL-2Rβ chain. How it is done:
The kinase reaction was initiated by the addition of 1 μCi of […] and 25 μM ATP. After 30 min at 24° C., the reaction was stopped by addition of reducing SDS-PAGE sample buffer and boiling.
(ii) Kinase reaction performed in the presence of Histone-H-1. There is an increased, genistein (tyrosine kinase inhibitor)-independent phosphorylation of Histone-H-1 in T-cell lysates retained on affinity beads coated with FLAG-HMK-IL-2Rβ chain. Control affinity beads coated with proteins isolated from bacteria transformed with vector alone and exposed to T-cell lysates retain only background level of serine/threonine kinase activity. These experiments were repeated a number of times. The results of a representative experiment are shown in FIG. 5 which is a reproduction of an autoradiogram of the products of the kinase reaction performed, in the presence of Histone H-1, on anti-FLAG beads coated with the IL-2Rβ chain construct (WT) and exposed to T-cell lysates in the presence of genistein (lane 3), or in the absence of genistein (lane 2) and then subjected to SDS-PAGE and autoradiography. The control (lane 1) was carried out with the FLAG-HMK vector alone (no insert).

For assay [3], the target named is T2, IL-2Rβ chain/Raf-1/14-3-3 complexes (Homo sapiens, UniProt P14784).
T2 construct: construction of plasmid FLAG-HMK-IL-2Rβ chain cytoplasmic domain wild type (FLAG-HMK-IL-2Rβ-WT); made in house; host or cells: bacterial lysates (BL-21 pLysS for the IL-2Rβ fusion, M15 for Raf-1)
T2 sequence (P14784 266-551 limits assumed): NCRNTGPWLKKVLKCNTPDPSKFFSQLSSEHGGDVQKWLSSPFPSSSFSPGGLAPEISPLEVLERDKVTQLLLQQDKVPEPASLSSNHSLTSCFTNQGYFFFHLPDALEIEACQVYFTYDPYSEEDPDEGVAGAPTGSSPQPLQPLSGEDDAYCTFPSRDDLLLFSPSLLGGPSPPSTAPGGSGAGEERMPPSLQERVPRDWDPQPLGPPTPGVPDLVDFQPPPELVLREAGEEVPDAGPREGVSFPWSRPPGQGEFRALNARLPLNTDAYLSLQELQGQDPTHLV
Kind of assay: Pre-formed IL-2Rβ chain/(His)6 Raf-1/bacterial 14-3-3 complexes exposed to catalytically active p56lck in vitro. Conditions: enzymatically active kinase, FIG. 10b. Type of assay: biochemical. How it is done:
The results of this examination are shown in FIG. 10a which is a reproduction of the above immunoblot. […] In addition, a study of the dissociation of pre-formed IL-2Rβ chain/Raf-1/14-3-3 complexes by enzymatically active p56^lck was also carried out. Pre-formed IL-2Rβ chain/(His)6 Raf-1/bacterial 14-3-3 complexes were prepared (see above in respect of FIGS. a-c), exposed to catalytically active p56^lck (Upstate Biotechnology), washed and eluted with FLAG peptide. Eluates were separated on SDS-PAGE and tested for the presence of Raf-1 proteins. The results of this study are shown in FIG. 10b which is a reproduction of an SDS-PAGE gel in which is depicted the Raf-1 bands. […] Since there is no indication that p56^lck interacts with Ras-like sequence of the IL-2Rβ chain, it seems that binding of Raf-1 and p56^lck to distinct subdomains of the same A-region, co-localize kinase and its substrate for fast enzymatic reaction occurring during IL-2R activation.

Assay [4] addresses T3, Raf-1/14-3-3 binding to the IL-2Rb chain (Homo sapiens, UniProt P14784).
T3 construct: constructs encoding full-length or deletional mutants of the human IL-2Rβ chain; expressed in transfected cells; host or cells: COS cells, pRcCMV-IL-2Rβ, with or without lck or fyn
T3 sequence (P14784 27-551): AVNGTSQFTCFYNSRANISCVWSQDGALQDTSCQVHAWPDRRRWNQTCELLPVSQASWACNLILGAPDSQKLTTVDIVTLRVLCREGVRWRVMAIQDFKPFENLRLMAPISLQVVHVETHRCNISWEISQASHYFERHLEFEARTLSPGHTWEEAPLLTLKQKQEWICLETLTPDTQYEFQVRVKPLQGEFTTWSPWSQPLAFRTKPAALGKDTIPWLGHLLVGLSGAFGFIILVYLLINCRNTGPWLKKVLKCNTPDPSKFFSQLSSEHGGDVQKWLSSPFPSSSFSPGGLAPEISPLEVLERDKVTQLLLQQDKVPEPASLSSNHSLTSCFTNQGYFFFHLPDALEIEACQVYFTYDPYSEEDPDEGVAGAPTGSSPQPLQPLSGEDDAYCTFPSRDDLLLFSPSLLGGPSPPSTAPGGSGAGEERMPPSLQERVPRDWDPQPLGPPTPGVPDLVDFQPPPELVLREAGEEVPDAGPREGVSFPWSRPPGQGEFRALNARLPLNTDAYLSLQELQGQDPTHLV
Nature of the assay: COS cells co-transfected with IL-2Rβ chain and lck or fyn, immunoprecipitates probed for Raf-1 and 14-3-3. It is filed as cell-based. Conditions: co-transfection of COS cells, FIG. 10a. The source says:
In order to perform this examination, COS cells were transfected with IL-2Rβ chain alone, or co-transfected with lck or fyn, then […] with anti-IL-2Rβ chain antibody. The immunoprecipitates were then probed for the presence of Raf-1 and 14-3-3 proteins by immunoblotting (all procedures as detailed hereinabove).

T1 sequence (P04049 whole entry, the tested form may be a part): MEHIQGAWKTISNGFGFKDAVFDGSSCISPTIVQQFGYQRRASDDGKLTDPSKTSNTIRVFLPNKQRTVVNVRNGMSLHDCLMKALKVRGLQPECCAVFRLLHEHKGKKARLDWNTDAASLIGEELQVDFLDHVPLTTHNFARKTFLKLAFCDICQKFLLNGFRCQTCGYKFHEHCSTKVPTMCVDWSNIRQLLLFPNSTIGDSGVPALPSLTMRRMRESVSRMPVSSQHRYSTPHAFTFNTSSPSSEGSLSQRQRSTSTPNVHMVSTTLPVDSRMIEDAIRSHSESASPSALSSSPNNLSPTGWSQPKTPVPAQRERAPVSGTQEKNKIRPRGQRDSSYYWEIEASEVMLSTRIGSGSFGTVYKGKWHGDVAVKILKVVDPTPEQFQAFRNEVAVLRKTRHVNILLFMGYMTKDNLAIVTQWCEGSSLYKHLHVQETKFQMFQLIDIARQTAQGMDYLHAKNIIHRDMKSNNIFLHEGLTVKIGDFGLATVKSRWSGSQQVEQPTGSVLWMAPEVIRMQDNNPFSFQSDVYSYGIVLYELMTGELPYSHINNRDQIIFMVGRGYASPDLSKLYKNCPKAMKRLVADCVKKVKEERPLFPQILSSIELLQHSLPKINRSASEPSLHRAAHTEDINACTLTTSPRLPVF

As for `O=c1c(-c2ccc(O)cc2)coc2cc(O)cc(O)c12` [genistein], the “dissociation of enzymatically active Raf-1 from the IL-2Rβ chain” value in assay [1] is “completely abolished”. The “effect of genistein on serine/threonine kinase activity (Histone H1 phosphorylation)” value in assay [2] is “not inhibited; also recorded: independent”.
Take “p56^lck: src-family protein tyrosine kinase; catalytically active enzyme from Upstate Biotechnology or co-transfected in COS cells”: the “dissociation of pre-formed IL-2Rβ chain/Raf-1/14-3-3 complexes” value in assay [3] was “dissociation”. The “effect on Raf-1/14-3-3 binding to the IL-2Rb chain” value in assay [4] is reported as “abrogation of Raf-1/14-3-3 binding”.
Consider “p59^fyn: another src-like kinase, co-transfected in COS cells”, for which the “effect on Raf-1/14-3-3 binding to the IL-2Rb chain” value in assay [4] is on record as “did not cause this dissociation”.
